Reference: article doi:10.1101/2023.06.15.545071, “POLARIS is a copper-binding peptide required for ethylene signalling control in Arabidopsis” (bioRxiv, 2023)

Biological target: T1, PLS linked to a C-terminal GFP (p35S::PLS:GFP) (Arabidopsis thaliana, UniProt Q8LLV8 1-36)
T1 construct: POLARIS (PLS) peptide, Arabidopsis thaliana, 36 amino acids; 'the 105-nucleotide PLS gene (without the stop codon)' in pEarlyGate103; source: Nicotiana benthamiana leaves, Agrobacterium infiltration, transient expression, in protein extract; not shown: GFP, C-terminal, kept
Assay: co-IP; PLS:GFP and ETR1:HA co-expressed in N. benthamiana leaves, 3 d; anti-GFP beads or anti-HA beads, western blot; extract with 0.5 μM copper sulphate or 2 mM EDTA
Settings: partners not purified

T1 sequence (Q8LLV8 whole entry): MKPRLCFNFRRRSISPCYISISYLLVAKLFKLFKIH

B1: ETR1 with a C-terminal HA tag (p35S::ETR1:HA) (receptor, Arabidopsis, UniProt P49333 1-738, looked up)
chain: MEVCNCIEPQWPADELLMKYQYISDFFIAIAYFSIPLELIYFVKKSAVFPYRWVLVQFGAFIVLCGATHLINLWTFTTHSRTVALVMTTAKVLTAVVSCATALMLVHIIPDLLSVKTRELFLKNKAAELDREMGLIRTQEETGRHVRMLTHEIRSTLDRHTILKTTLVELGRTLALEECALWMPTRTGLELQLSYTLRHQHPVEYTVPIQLPVINQVFGTSRAVKISPNSPVARLRPVSGKYMLGEVVAVRVPLLHLSNFQINDWPELSTKRYALMVLMLPSDSARQWHVHELELVEVVADQVAVALSHAAILEESMRARDLLMEQNVALDLARREAETAIRARNDFLAVMNHEMRTPMHAIIALSSLLQETELTPEQRLMVETILKSSNLLATLMNDVLDLSRLEDGSLQLELGTFNLHTLFREVLNLIKPIAVVKKLPITLNLAPDLPEFVVGDEKRLMQIILNIVGNAVKFSKQGSISVTALVTKSDTRAADFFVVPTGSHFYLRVKVKDSGAGINPQDIPKIFTKFAQTQSLATRSSGGSGLGLAISKRFVNLMEGNIWIESDGLGKGCTAIFDVKLGISERSNESKQSGIPKVPAIPRHSNFTGLKVLVMDENGVSRMVTKGLLVHLGCEVTTVSSNEECLRVVSHEHKVVFMDVCMPGVENYQIALRIHEKFTKQRHQRPLLVALSGNTDKSTKEKCMSFGLDGVLLKPVSLDNIRDVLSDLLEPRVLYEGM
notes: 'the ETR1 cDNA' in pEarlyGate301; source: Nicotiana benthamiana leaves, Agrobacterium infiltration, transient expression, in protein extract; not shown: HA, C-terminal, kept
  fold more co-precipitated with copper ions than with 2 mM EDTA: ~3 fold
